Data reported in publication PMC5473912, “Regulation of sub-compartmental targeting and folding properties of the Prion-like protein Shadoo” (Scientific Reports, 2017).

Biological target: T1, Calreticulin (CRT), endogenous mouse (mouse (endogenous in GT1), UniProt P14211 18-416)
T1 construct: Calreticulin (CRT), mouse, immunoprecipitated with anti-CRT antibody; also called ER chaperone Calreticulin; source: endogenous, GT1 lysate
T1 sequence (looked up): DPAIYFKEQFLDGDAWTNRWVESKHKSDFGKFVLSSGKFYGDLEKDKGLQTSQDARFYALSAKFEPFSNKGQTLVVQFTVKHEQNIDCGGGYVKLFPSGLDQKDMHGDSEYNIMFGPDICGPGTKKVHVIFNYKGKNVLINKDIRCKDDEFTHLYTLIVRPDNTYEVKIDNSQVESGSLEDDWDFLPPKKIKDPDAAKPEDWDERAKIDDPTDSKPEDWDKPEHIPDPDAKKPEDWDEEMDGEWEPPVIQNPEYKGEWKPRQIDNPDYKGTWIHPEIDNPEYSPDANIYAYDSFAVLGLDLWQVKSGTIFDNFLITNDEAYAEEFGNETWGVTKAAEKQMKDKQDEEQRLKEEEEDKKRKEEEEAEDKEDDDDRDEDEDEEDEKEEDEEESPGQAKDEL
Test: co-IP; Calreticulin immunoprecipitated from GT1 lysates (JS buffer, 1% TX-100, 150 mM NaCl, pH 7.5) with anti-CRT Ab and protein A-Sepharose overnight at 4 °C; Sho revealed by Western blot with SPRN-R12; cells under control conditions or cholesterol depletion (βCD 10 mM, 1 h)
Conditions: partners not purified

B1: Shadoo (Sho), mature fully glycosylated ~22 kDa isoform, endogenous mouse (natural protein, mouse (endogenous in GT1), UniProt Q8BWU1 25-122, looked up)
chain: KGGRGGARGSARGVRGGARGASRVRVRPAPRYGSSLRVAAAGAAAGAAAGVAAGLATGSGWRRTSGPGELGLEDDENGAMGGNGTDRGVYSYWAWTSG
modifications: fully N-glycosylated (complex-glycosylated)
notes: Shadoo (Sho, SPRN), mouse, the mature fully glycosylated isoform that migrates at ~22 kDa; also called mature Sho; mature glycosylated Sho; source: endogenous, GT1 lysate
Q: With B1 as the binder, how does the “fold increase in the immunocomplex upon cholesterol depletion against control” value read?
A: ~3 fold
